Data taken from the supplement of paper PMC12042874.
± gives the uncertainty stated by the source.

Experiment: amyloid nucleation score (Sup35N fusion, yeast selection) (log enrichment); library NNK3; higher = more nucleation; inactive = no reads after selection
Outline: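 Peptides of 20 random codons fused to Sup35N were expressed in psi-negative yeast, induced 24 hours with 100 μM copper sulfate, then grown 7 days at 30°C on medium lacking adenine and uracil. Input and output plasmid inserts were Illumina-sequenced. Nucleation score is the DiMSum log enrichment of output over input reads, centred on the mode score of non-aggregating sequences, excluding sequences with under 100 input reads. Random libraries had three technical output replicates.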

Substance | amyloid nucleation score
PDNFNSRFNTRFKTHTRHPT | inactive
PDRLFLDTGSTWFKYMMSCL | -1.12 ± 1.4
PDRMIGGLSFRKFDISCPYA | inactive
PDTLRRNRVSRFTFAKRCGL | -0.769 ± 0.98
PDVFYILVTALWDVRNSNSF | inactive
PDWVVPDGGIVTGIVGWCSG | inactive
PEFDLCDINSSLGSMRFWQW | inactive
PFCFELSWGYGKNKVATMRY | inactive
PFCRMKLGMTLRALLLVMGS | inactive
PFGVKSMLAVYTHYVFGATV | inactive
PFPRNGLFHLFWYGLCYMAL | inactive
PFSSLASVVPLRGFG | inactive
PFTACWVSVADNPYPSNKTG | inactive
PFWELYKDFSSICRLTQEGY | inactive
PGKYGLV | inactive
PGLIVF | inactive
PGSLI | -0.219 ± 0.52
PHMNWSYVPQF | inactive
PIAFSIALPRVVCRQ | inactive
PIFFCFNDVWTGNVVLDAMG | 3.05 ± 0.058
PIMVRRHEGSH | inactive
PKCSIGKSLLVGRLMDVRAV | inactive
PKIRSF | inactive
PKNFLSVETF | inactive

Substance | amyloid nucleation score
PKSYVNTVKVMVVNSQVQLQ | 0.836 ± 0.2
PLFHVFLELYTLPFVENFDV | inactive
PLLLQWHHYNLLGRS | 0.193 ± 0.69
PLPYANKNNCFGNSSLRATI | inactive
PLQNKASVRVGCWAML | inactive
PLSLDFVDVARFSGRTGCWF | inactive
PLSLSGGDDDRLLSLEMLVL | inactive
PLSVAFYGVTIR | 0.056 ± 0.19
PLYQSYYHLEPSCDWCYSSR | -0.144 ± 0.28
PMCFSSHRFGTCRINWHVPG | inactive
PMKGSSMSTPTANIRQ | -0.135 ± 1.1
PMYVHRKDYKVVGSYMSTM | inactive
PNGSYAKQLLVSIL | inactive
PNLMLPCTSGRELMKVSNVL | inactive
PNPLRLNNIRRVLARKSKVS | inactive
PNPYGNGIITWKN | inactive
PNRLTPFQRSTSSHLQNVGQ | inactive
PNRNYVCGMSCYGAVVSELR | inactive
PNYKNYLGGNRVVS | inactive
PQIVFRFDNIDQ | inactive
PRGMPIAIFSDWCRLRWGVF | inactive
PRNHIRSLSM | inactive
PRPSYWHRYSWSTTIVGGIS | inactive
PRSMNLHLTSSVTSCLKSVW | -0.707 ± 0.9

Substance | amyloid nucleation score
PRYGEVGATSFSDVTETML | inactive
PSHPVPLFHE | inactive
PSHTLRNTSLSMSVSTTHKA | inactive
PSKPRTGQVGGVYHLCVVFW | inactive
PSLYDLKRSCWGSWMAYEWK | inactive
PSNMRG | 0.147 ± 0.34
PSRRRMYADFHKATFPVRMG | inactive
PSSLVIINNYSYC | 3.09 ± 0.073
PSSSDGSMHLYIILQTLLFF | 1.49 ± 0.11
PSTEI | inactive
PSTGLNSVKNRIDVSCGFR | inactive
PTCGMDFVLQEYTKT | inactive
PTFCNQNFGNTFGCKRFYLS | inactive
PTILWAQYAGWGSKVWPPRL | inactive
PTKRYVKSYLISCVFIISHP | inactive
PTLLTMRQEQRHAKNFRSNL | inactive
PTLYRQNGLLWLVDGEKLIR | inactive
PTNLYCHRMGEVSVYCRNLR | inactive
PTNTNCLNVLG | inactive
PTVKKLYMQLFLSPCISSEG | inactive
PVLGSHRIVLSFDKIYLSRD | inactive
PVLSYSVLRYL | inactive
PVQQSGLVWRLGAIVVC | inactive
PVRIVLVKPGIFMLDVTYSP | inactive

Substance | amyloid nucleation score
PVSII | inactive
PVVTMLYLTSIVSSSGHGSY | 0.898 ± 0.11
PVVTVGYLDRMFISFLFSRI | inactive
PWSWWTHYTSGCQYQFGYRG | -0.749 ± 1.1
PYTTLYSFRNC | inactive
PYYRRMPVDSARRTSKSK | inactive
QALYDWILWNHWTTKVGPVA | inactive
QAVMKRAALVPTRTAKSLPS | inactive
QCFCILDFMYWIHARSIM | inactive
QCKHSPGWAWRNSTNHCIAS | inactive
QCLQALNMKIVFDHVRFRVR | inactive
QCRHPGSRP | inactive
QCRYRRSST | inactive
QCVCLS | inactive
QCVRSMLEELRIGYKVHRQS | inactive
QCYCGLTPTANLDPLMRIWD | inactive
QDDAVFSLSI | inactive
QDWEMVN | inactive
QEYEGLRDSVKTVEGYVWLM | inactive
QFHYYVLMIRSVIPFIALWK | inactive
QFLRGVMPAGMECAHATMRW | inactive
QFMYMFRARRTCGLNNGGQD | -0.689 ± 1.5
QFSRPGIFNFHRWDSRYRAA | inactive
QFSRWI | inactive

Substance | amyloid nucleation score
QFTGHINRDVNM | inactive
QFYTDSFLHIIFSWCGPLDQ | inactive
QGEHRHLCDLSLSEG | inactive
QGFFRFSLVSAKRACKLDYS | inactive
QGHNHYVTILRFIWFLRPAM | inactive
QICRGCRYVNVYYVPLSLDL | 1.32 ± 0.095
QIMIIISMRVSNMCGVSYLG | inactive
QIQGMNSQKRLRLKKP | inactive
QKIVSPRSGGFASPRMRQKV | inactive
QLAKG | inactive
QLFMPGSVVTHRSYFTCMWL | 1.95 ± 0.064
QLGDMNAAALITATASRLVM | inactive
QLRRCLEMARYSKARFRNCM | inactive
QLSHKACLWLSCSSGIPLGS | inactive
QMEKHLRAASVSVCTSQSPV | inactive
QMGVVNLRAKGQQCAQRQSK | inactive
QNNRHISHLGLQGDEQALVY | inactive
QPPAKSMWFSFDMLS | inactive
QQVLVVQNKCEWGRHIA | inactive
QQYSTAYYIHGFTKMVGVVA | 0.298 ± 0.19
